Results as given in publication PMC13062060, “Calcium activation mechanism of a noncanonical aromatic L-amino acid decarboxylase from psilocybin mushroom Psilocybe cubensis” (Communications Biology, 2026).

The substances below were run on N[C@@H](Cc1ccccc1)C(=O)O (assay: LC-MS of phenylethylamine formed, Michaelis-Menten fit). Details: 30 mM calcium acetate (activating), 50 mM Tris pH 8.0, room temperature, brackets 95% CI, also measured in 30 mM NaCl.
Assay type: biochemical, Psilocybe cubensis
Text: LC-MS of phenylethylamine formed, Michaelis-Menten fit on PcncAAAD (noncanonical aromatic L-amino acid decarboxylase)
For “PcncAAAD (noncanonical aromatic L-amino acid decarboxylase) (Psilocybe cubensis; D825A/D931A/E824A)”, the Km was 174 [105–287] µM and the kcat was 0.41 s⁻¹.
With “PcncAAAD (noncanonical aromatic L-amino acid decarboxylase) (Psilocybe cubensis)” the Km was 88 [49–154] µM and the kcat was 0.51 s⁻¹.
For “PcncAAAD (noncanonical aromatic L-amino acid decarboxylase) (Psilocybe cubensis; D825A/D931A/D971A/D973A/E637A/E638A/E824A/E972A)”, the Km was 586 [359–979] µM and the kcat was 0.044 s⁻¹.
For “PcncAAAD (noncanonical aromatic L-amino acid decarboxylase) (Psilocybe cubensis; D971A/D973A/E637A/E638A/E972A)”, the Km was 513 [319–839] µM and the kcat was 0.073 s⁻¹.
